According to patent US20230272089A1 (SYNTHEKINE, published 2023):

Target: T1, hIL2Rg ECD antigen (human, UniProt P31785 23-262)
T1 construct: Antigen of biopanning and PE-ELISA; also called extracellular domain of human IL2Rg; CD132 ECD
T1 sequence: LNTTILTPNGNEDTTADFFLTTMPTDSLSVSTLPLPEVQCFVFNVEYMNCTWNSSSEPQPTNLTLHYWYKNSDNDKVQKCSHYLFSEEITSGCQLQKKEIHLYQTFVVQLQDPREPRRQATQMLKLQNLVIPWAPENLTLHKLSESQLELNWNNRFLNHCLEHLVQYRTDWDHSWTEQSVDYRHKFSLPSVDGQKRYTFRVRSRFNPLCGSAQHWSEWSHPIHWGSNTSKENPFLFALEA
Assay: periplasmic extract ELISA (PE-ELISA) of phage clones after biopanning

B1: hIL2Rg_VHH-15 (VHH)
VHH: QVQLQESGGGLVQPGGSLRLSCAASGFTFSSAHMSWVRQAPGKGREWIASIYSGGGTFYADSVKGRFTISRDNAKNTLYLQLNSLKAEDTAMYYCATNRLHYYSDDDSLRGQGTQVTVSS
notes: Periplasmic extract of a phage clone, as in the PE-ELISA; not shown: HA/His tag of the pMECS phagemid
- binding result: binds
